Measurements published in US20200332017A1 (SALUBRIS CHENGDU BIOTECH, published 2020).
Where two headings read alike, the source gives them in different places.

Legend:
[1] = biological target: T1, human CD40-Fc protein (amino acid residue 21-193 of SEQ ID NO: 67 linked to N-terminus of amino acid residue … (human, biotin-labeled in the capture ELISA and in the benchmark blocking ELISA; unlabeled when coated in the ligand blocking ELISA); assay: competitive ELISA; biotin human CD40-Fc in solution, competitor coated BM2
T1 construct: also called biotin-labeled human CD40-Fc; human CD40-Fc-biotin
Method: (§1) The ability of the mouse anti-CD40 antibodies of the present invention to block the binding of the Benchmark to human CD40 was measured using a competitive ELISA assay. […] The next day, plates were washed with wash buffer, and blocked with 5% w/v non-fatty milk in PBST for 2 hours at 37° C. Plates were then washed again using wash buffer. […] After incubation at 37° C. for 40 minutes, plates were washed 4 times using wash buffer. Then streptavidin conjugated HRP was added and incubated for 40 minutes at 37° C. to detect biotin-labeled human CD40-Fc bound to plates. Plates were washed again using wash buffer. Finally, TMB was added and the reaction was stopped using 1M H₂SO₄, and the absorbance was read at 450 nm. Data were analyzed using Graphpad Prism software and IC₅₀ values were reported.

[2] = biological target: T2, Human CD40-his protein (Acro biosystems, Cat # CD0-H5228) (human, UniProt P25942 21-193); assay: SPR, Biacore; human CD40-his
T2 construct: Bought reagent; not shown: his tag
Description: (§2) Briefly, goat anti-mouse IgG (GE healthcare, Cat # BR100838, Mouse Antibody Capture Kit) was covalently linked to a CM5 or a Protein G chip (carboxy methyl dextran coated chip) via primary amines, using a standard amine coupling kit provided by Biacore (GE healthcare, Pittsburgh, Pa., USA). Un-reacted moieties on the biosensor surface were blocked with ethanolamine. […] Then, human CD40-his (Acro biosystems, Cat # CD0-H5228) or cynomolgus monkey CD40-his protein (Acro biosystems, Cat # CD0-052H6) in HBS EP buffer (provided by Biacore) was flowed onto the chip at a flow rate of 30 μL/min. The antigen-antibody association kinetics was followed for 2 minutes and the dissociation kinetics was followed for 10 minutes. The association and dissociation curves were fit to a 1:1 Langmuir binding model using BIA evaluation software.

[3] = biological target: T3, full length human CD40 (uniprot # P25942-1) on the membrane of 293T-CD40 cells (human, UniProt P25942 21-277); assay: cell-based or functional assay
[4] = biological target: T2, Human CD40-his protein (Acro …); assay: SPR, Biacore; antibody captured, human CD40-his flowed
Description: as §2

[5] = biological target: T4, cynomolgus monkey CD40-his protein (Acro biosystems, Cat # CD0-052H6) (cynomolgus monkey, UniProt G7PG38 21-193); assay: SPR, Biacore; cynomolgus CD40-his
T4 construct: Bought reagent; also called Cynomolgus CD40-his
Description: as §2

[6] = biological target: T1, human CD40-Fc protein (amino acid …); assay: competitive ELISA; coated human CD40-Fc, competitor biotin human CD40L-his
Method: (§3) Serially diluted the mouse anti-CD40 antibodies of the present invention or the controls (starting at 200 nM with a four-fold serial dilution) in 2.5% w/v non-fatty milk in PBST were prepared to the plates and incubated with the human CD40-Fc proteins at room temperature for 40 minutes. […] Plates were washed again. 100 μl/well of streptavidin conjugated HRP was added and incubated for 40 minutes at 37° C. Plates were washed again using wash buffer. Finally, TMB was added and the reaction was stopped using 1M H₂SO₄, and the absorbance was read at 450 nm. Data were analyzed using Graphpad Prism software and IC₅₀ values were reported.

[7] = biological target: T3, full length human CD40 (uniprot # …); assay: flow cytometry on 293T-CD40 cells
Method: (§4) 2×10⁵ cells per well in 96 well-plates were incubated with the mouse anti-CD40 antibodies or the controls of various concentrations in FACS buffer for 40 minutes on ice. […] Following an incubation of 40 minutes at 4° C. in dark, cells were washed three times and resuspended in FACS buffer. Fluorescence was measured using a Becton Dickinson FACS Canto II-HTS equipment and plotted against antibody concentration.

[8] = biological target: T1, human CD40-Fc protein (amino acid …); assay: capture ELISA (antibody captured on coated goat anti-human IgG F(ab')2, biotin-labeled human CD40-Fc in solution, streptavidin-HRP, OD(450-630))
[9] = biological target: T1, human CD40-Fc protein (amino acid …); assay: benchmark blocking ELISA: BM2 (Selicrelumab) coated as competitor, antibody titrated in biotin-labeled human CD40-Fc solution, streptavidin-HRP, OD(450-630)
Method: as §1

[10] = biological target: T1, human CD40-Fc protein (amino acid …); assay: ligand blocking ELISA: human CD40-Fc coated, antibody titrated, then biotin-labeled human CD40L-his (blocked ligand), streptavidin-HRP, OD(450-630)
Method: as §3

[11] = biological target: T3, full length human CD40 (uniprot # …); assay: flow cytometry on 293T-CD40 cells, PE goat anti-human IgG Fc-gamma secondary antibody, MFI
Method: Following an incubation of 40 minutes at 4° C. in dark, cells were washed three times and resuspended in FACS buffer. Fluorescence was measured using a Becton Dickinson FACS Canto II-HTS equipment and plotted against antibody concentration.

[12] = biological target: T1, human CD40-Fc protein (amino acid …); assay: capture ELISA; antibody captured, biotin-labeled human CD40-Fc in solution
Method: (§5) Plates were washed 4 times with wash buffer (PBS+0.05% Tween-20, PBST) and then blocked with 200 μl/well blocking buffer (5% w/v non-fatty milk in PBST) for 2 hours at 37° C. […] After a final wash, plates were incubated with 100 μl/well ELISA substrate TMB (Innoreagents, Cat # TMB-S-002). The reaction was stopped in 15 minutes at 25° C. with 50 μl/well 1M H₂SO₄, and the absorbance was read at 450 nm and plotted against antibody concentration. Data were analyzed using Graphpad Prism software and EC₅₀ values were reported.

[13] = biological target: T3, full length human CD40 (uniprot # …); assay: cell-based or functional assay; remark: listed apart in the source
[14] = biological target: T3, full length human CD40 (uniprot # …); assay: flow cytometry on 293T-CD40 cells, PE-labeled secondary antibody, MFI
Method: as §4

[15] = biological target: T1, human CD40-Fc protein (amino acid …); assay: capture ELISA; antibody captured, biotin-labeled human CD40-Fc in solution; remark: listed apart in the source
Method: as §5

[16] = biological target: T3, full length human CD40 (uniprot # …); assay: flow cytometry on 293T-CD40 cells; remark: listed apart in the source
Method: as §4

[17] = biological target: T1, human CD40-Fc protein (amino acid …); assay: competitive ELISA; coated human CD40-Fc, competitor biotin human CD40L-his; remark: listed apart in the source
Method: Briefly, human CD40-Fc proteins (amino acid residue 21-193 of SEQ ID NO: 67 linked to N-terminus of amino acid residue 99-330 of SEQ ID NO.: 24) were coated on 96-well micro plates at 2 μg/mL in coating buffer (PBS) and incubated overnight at 4° C. The next day, plates were washed with wash buffer (PBS+0.05% Tween-20, PBST), and blocked with 5% w/v non-fatty milk in PBST for 2 hours at 37° C. Plates were then washed again using wash buffer.
as §3

B1: humanized antibody huC1C1-V7 (antibody, human IgG1, kappa, V domains shown)
VH: EVQLVESGGGVVQPGRSLRLSCAASGFTFSNYGMSWVRQAPGKGLEWVASISSGGDDTYYPDNVKGRFTISRDNSKNTLYLQMNSLRAEDTAVYYCTRAGGKAMDYWGQGTLVTVSS
VL: EIVLTQSPATLSLSPGERATLSCRASQSIRDNLHWYQQKPGQAPRLLIYYASQSISGIPARFSGSGSGTDFTLTISSLEPEDFAVYYCQQFNSWPLTFGQGTKVEIKR
notes: Human IgG1/kappa; also called humanized C1C1-V7
IC50 [1]: 0.111 nM
Kd [2]: 11.3 nM
cell based functional assay (EC50, nM) [3]: 4.25 nM
Kd [4]: 11.9 nM
koff [4]: 0.00968 s⁻¹
kon [4]: 814000 M⁻¹ s⁻¹
Kd [5]: 4.04 nM
IC50 [6]: 3 nM
EC50 [7]: 1.85 nM
EC50 (read off the curve) [8]: ~0.04 µg/mL
IC50 (read off the curve) [9]: ~0.02 µg/mL
IC50 (read off the curve) [10]: ~0.5 µg/mL
EC50 (read off the curve) [11]: ~0.3 µg/mL
EC50 [12]: 0.248 nM

B2: mouse anti-CD40 monoclonal antibody 1B2 (antibody, V domains shown)
VH: EVQLQQSGPELVKPGASVKMSCKASGYTFTDYVMHWVKQKPGQGLECIGYINPYNDGTKYNEKFKGKATLTSDKSSSAAYLELSSLTSEDSAVYYCARGFLRESWFGYWGQGTLVTVSA
VL: DVLMTQTPLSLPVSLGDQASISCRSSQNIVHSNGNTYLDWYLQKPGQSPKLLIYKVSNRFSGVPDRFSGSGSGTDFTLKINRVEAEDLGVYYCFQGSHVPPTFGAGTKLELK
notes: Purified from hybridoma supernatant; also called Mouse 1B2
IC50 [1]: 4.76 nM
Cell-based Reporter assay (EC50, nM) [13]: 6.36 nM
EC50 (read off the curve) [14]: ~3 nM
EC50 [15]: 47.1 nM
EC50 [16]: 2.54 nM
IC50 [17]: 315 nM
